Test system: IKK-phosphorylated IκBα in the IκBα/NF-κB complex
Sequence (chain, as listed by the source): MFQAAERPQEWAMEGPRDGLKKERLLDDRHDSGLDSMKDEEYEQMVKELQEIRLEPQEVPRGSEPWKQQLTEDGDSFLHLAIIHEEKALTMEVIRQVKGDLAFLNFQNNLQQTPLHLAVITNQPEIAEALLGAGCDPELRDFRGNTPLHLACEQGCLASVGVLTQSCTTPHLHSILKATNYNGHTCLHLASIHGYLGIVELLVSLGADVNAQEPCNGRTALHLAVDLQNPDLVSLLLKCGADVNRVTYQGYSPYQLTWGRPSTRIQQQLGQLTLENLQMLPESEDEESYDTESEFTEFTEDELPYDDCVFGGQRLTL

Question: How did the in vitro ubiquitination of pIκBα in the presence of E1 and E2 (UBC5C), efficiency against human and mouse β-TrCP (fold less efficient) turn out when Drosophila Slimb protein, FLAG-tagged was run?
Answer: > 10

Source: patent publication US20030166587
